# From patent EP4722241A1 (Jiksak Bioengineering, Inc., dated 2024)
# Where a chain is given by its changes, count along the chain named.
# T1: pan-hSYT2 (antigenic peptide for panning, Human SYT2 position 1-62) (human, lysine residue bound to biotin (position marked only in a picture of the sequence))
# T1 construct: Synthetic biotinylated peptide, immobilised on streptavidin biosensors in the Octet measurements; also called N-terminal domain of human Synaptotagmin 2
# T1 peptide: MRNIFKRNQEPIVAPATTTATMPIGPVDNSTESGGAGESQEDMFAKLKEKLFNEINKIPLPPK
# B1: first monoclonal antibody according to the present invention (antibody, human IgG1, V domains shown)
# VH: EVQLQESGAELVRPGASVKLSCKASGYTFTDYEMHWVKQTPVHGLEWIGAIDPETGGTAYNQKFKGKATLTADKSSSTAYMELRSLTSEDSAVYYCTRGNDGYNEDYWGQGTTLTVSS
# VL: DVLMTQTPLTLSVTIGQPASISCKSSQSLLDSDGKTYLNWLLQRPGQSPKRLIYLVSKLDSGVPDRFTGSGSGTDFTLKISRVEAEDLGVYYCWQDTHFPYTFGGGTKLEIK
# notes: Mouse VH and VL from a phage display scFv clone; also called first antibody; first anti-SYT2 antibody
# B2: second monoclonal antibody according to the present invention (antibody, human IgG1, V domains shown)
# VH: B1 VH with E1Q, E6Q, T113S
# VL: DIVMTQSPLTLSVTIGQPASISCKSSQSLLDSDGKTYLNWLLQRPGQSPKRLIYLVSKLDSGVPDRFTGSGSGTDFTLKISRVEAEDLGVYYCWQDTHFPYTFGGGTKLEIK
# notes: also called second antibody; second anti-SYT2 antibody
# Columns and labels:
# [1] = target: T1, pan-hSYT2 (antigenic peptide for …); assay: BLI (Octet RED96e), biotinylated pan-hSYT2 on streptavidin biosensor, antigen loaded at 0.05 ug/mL
# [2] = target: T1, pan-hSYT2 (antigenic peptide for …); assay: BLI (Octet RED96e), same manner as Example 2, antigen loaded at 0.2 ug/mL
Binder,Kd [1] [nM],koff [1] [s⁻¹],kon [1] [M⁻¹ s⁻¹],koff [2] [s⁻¹]
B1,0.0267,7.01e-06,263000,
B2,,,,1.35e-05
